{
  "source": "the nanobody polyreactivity screen of Harvey et al. (2022)",
  "data": [
    {"test": "yeast display, Sf9 membrane polyspecificity reagent, FACS + sequencing; frameworks hold sequencing errors", "how_it_was_run": "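Synthetic nanobody libraries on Saccharomyces cerevisiae BJ5465 were galactose-induced for 36–48 hours, stained 1 hour at 4 °C with 10% biotinylated, detergent-solubilized Sf9 membrane reagent and enriched on streptavidin microbeads. FACS then separated cells into low and high (top ~1%) gates by anti-HA (expression) and streptavidin (reagent binding) fluorescence. Genes were colony-PCR amplified, MiSeq 2 × 250 sequenced and CDR-length filtered. A clone's polyreactivity label is that of its gate of origin.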", "values": [
      {"sequence": "QVQLVESGGGLVQAGGSLRLSCAASGSIFLEYAMGWYRQAPGKERELVAAISSSGGSTYYADSVKGRFTISRDNAKYTVYLQMNSLKPEDTAVYYCAAGGHYYSSPGYNYWGQGTQVTVSS", "polyreactivity (PSR sort gate)": "high polyreactivity"},
      {"sequence": "QVQLVESGGGLVQAGGSLRLSCAASGSIFLGNALGWYRQAPGKERELVAAISRSGGRTYYADSVKGRFTISRDNAKNTVYLQMNSLKPEDTAVYYCAARSYGIYYAKEFYYWGQGTQVTVSS", "polyreactivity (PSR sort gate)": "high polyreactivity"},
      {"sequence": "QVQLVESGGGLVQAGGSLRLSCAASGSIFLGNAMGWYRQAPGKERELVAAISGGDSTNYADSVKGRFTISRDNAKNTVYLQMNSLKPEDTAVYYCAKDRPQEYDYWGQGTQVTVSS", "polyreactivity (PSR sort gate)": "low polyreactivity"},
      {"sequence": "QVQLVESGGGLVQAGGSLRLSCAASGSIFLGNAMGWYRQAPGKERELVAAITSRGGRTYYADSVKGRFTISRDNAKNTVYLQMISLKPEDTAVYYCAADVSRPRAGFNYWGQGTQVTVSS", "polyreactivity (PSR sort gate)": "high polyreactivity"},
      {"sequence": "QVQLVESGGGLVQAGGSLRLSCAASGSIFLGNAMGWYRQAPGKERELVAAITWSGGSTTYADSVKGRFTISRDNAKNTVYLQMNSLKREDTAVYYCNASIYQRYDYWGQGTQVTVSS", "polyreactivity (PSR sort gate)": "low polyreactivity"},
      {"sequence": "QVQLVESGGGLVQAGGSLRLSCAASGSIFLGYAMGWYRQAPGKERELVAAISWTGGSTYYADSVKGRFTISRDNAKNTVYLQMNSLTPEDTAVYYCAAEDQYGFDYWGQGTQVTVYS", "polyreactivity (PSR sort gate)": "high polyreactivity"},
      {"sequence": "QVQLVESGGGLVQAGGSLRLSCAASGSIFLGYTMGWSRQAPGKERELVAAINSSGGSTYYADSVKGRFTISRDNAKNTVYLQMNSLKPEDTAVYYCAVANSILLFDSWGQGTQVTVSS", "polyreactivity (PSR sort gate)": "low polyreactivity"},
      {"sequence": "QVQLVESGGGLVQAGGSLRLSCAASGSIFLGYTMGWYRQAPGKERELVAAINSSGGSTYYADSVKGRFTISRDNAKNTVYLQMNSLKPEDTAVYYCADANSILLFDSWGQGTQVTVSS", "polyreactivity (PSR sort gate)": "low polyreactivity"},
      {"sequence": "QVQLVESGGGLVQAGGSLRLSCAASGSIFLGYVMGWSRQAPGKERELVAAITNSGGSTYYADSVKGRFTISRDNAKNTVYLQINSLKPEDTAVYYCAADSITSKNQGLDYDYWGQGTQVTVSS", "polyreactivity (PSR sort gate)": "low polyreactivity"},
      {"sequence": "QVQLVESGGGLVQAGGSLRLSCAASGSIFLLNAMGWYRQAPGKERELVARIRINGGSTYYADSVKGRFTISRDNAKNTVYLKMNSLKPEDTAVYYCAADDTGPYSNWYDYWGQGTQVTVSS", "polyreactivity (PSR sort gate)": "low polyreactivity"},
      {"sequence": "QVQLVESGGGLVQAGGSLRLSCAASGSIFLLYAMGGYRQAPGKERELVAAITRGGGSTYYADSVKGRFTISRDNAKNTVYLQMNSLKPEDTAVYYCAKGFQNHNGRLVVAYDYWGQGTQVTVSS", "polyreactivity (PSR sort gate)": "low polyreactivity"},
      {"sequence": "QVQLVESGGGLVQAGGSLRLSCAASGSIFLLYAMGWYRQAPGKERELVAAISYSGGATYYADSVKGRFTISRDNAKYTVYLQMNILKPEDTAVYYCAAEAYDDYDYWGQGTQVTVSS", "polyreactivity (PSR sort gate)": "low polyreactivity"},
      {"sequence": "QVQLVESGGGLVQAGGSLRLSCAASGSIFLLYAMGWYRQAPGKERELVARISWSGDNTRYADSVKGRFTISRDNAKNTVYLQMNSLKPEDTAVYYCNAYYFYGQWKGYDYWGQGTQVTVSS", "polyreactivity (PSR sort gate)": "low polyreactivity"},
      {"sequence": "QVQLVESGGGLVQAGGSLRLSCAASGSIFLPYAMGWYRQAPGKERELVAAIDTSSGSTYYADSVKGRFTISRDNAKNTVYLQMNSLKPEDTAVYYCNADYWVQGDDWLLYDYWGQGTQVTVSS", "polyreactivity (PSR sort gate)": "low polyreactivity"},
      {"sequence": "QVQLVESGGGLVQAGGSLRLSCAASGSIFLQNAMGWYRQAPGKERELVARITTSGGSTYYADSVKGRFTISRDNAKNTVYLPMNSQKPEDTAVYYCAVRSRRQRGGIRGFDYGGQGTQVTVSS", "polyreactivity (PSR sort gate)": "high polyreactivity"},
      {"sequence": "QVQLVESGGGLVQAGGSLRLSCAASGSIFLQYAMAWYRQAPGKERELVAAISWSGGSTYYAYSVKGRFTISRDNAKNTVYLQMNSLKPEDTAVYYCAAPITPYSHYRMDYWGQGTQVTVSS", "polyreactivity (PSR sort gate)": "low polyreactivity"},
      {"sequence": "QVQLVESGGGLVQAGGSLRLSCAASGSIFLRNAMGWYRQAPGKERELVAAITYSSGSTYYADSVKGRFTISRDNAKNTVYLQMNSLKPEDTAVYYCAATSRSSRRYYYWGQGTQVTVSS", "polyreactivity (PSR sort gate)": "high polyreactivity"}
    ]}
  ]
}
